Assay results published in patent US20250092136A1 (Hoffmann-La Roche, published 2025).
Where a chain is given by its changes, count along the chain named. Numbers in names are those of the source.

Experiments:
Streptavidin [1] = target: T1, Streptavidin (UniProt P22629 37-163, limits assumed); assay: polyreactivity ELISA, coated antigen
Description: (§1) Polyreactivity was tested using an ELISA-based read out. A set of different antigens depicted in Table 9 was coated on a Nunc MaxiSorp microtiter plate (Fisher Scientific) overnight at 4° C. with a concentration of 1 μg/ml in Dulbecco's phosphate buffered saline (DPBS, PAN Biotech #P04-36500) each. After washing the plate two times using PBS (Roche Diagnostics #11666789001) containing 0.1% Tween-20, plates were blocked with DPBS, 2% bovine serum albumin (BSA, Roche Diagnostics #10735108001) for 1 hour at room temperature. After washing the plate three times, the HER2 TCBs were added with a concentration of 1 μg/ml diluted in DPBS and incubated for 1 hour at room temperature. Subsequently, plates were washed three times and an anti-human IgG F(ab′)2-HRP (Jackson ImmunoResearch #109-036-006) diluted 1:5000 in PBS, 0.5% BSA, 0.05% Tween-20 was added. After incubation for 1 hour at room temperature and washing for four times, TMB substrate (Sigma-Aldrich #T0440) was added and absorption was measured at 370/492 nm.

Bovine Serum Albumin [2] = target: T2, Bovine Serum Albumin (bovine, UniProt P02769 25-607); assay: polyreactivity ELISA, coated antigen
T2 construct: also called BSA
T2 sequence (P02769 25-607 limits assumed): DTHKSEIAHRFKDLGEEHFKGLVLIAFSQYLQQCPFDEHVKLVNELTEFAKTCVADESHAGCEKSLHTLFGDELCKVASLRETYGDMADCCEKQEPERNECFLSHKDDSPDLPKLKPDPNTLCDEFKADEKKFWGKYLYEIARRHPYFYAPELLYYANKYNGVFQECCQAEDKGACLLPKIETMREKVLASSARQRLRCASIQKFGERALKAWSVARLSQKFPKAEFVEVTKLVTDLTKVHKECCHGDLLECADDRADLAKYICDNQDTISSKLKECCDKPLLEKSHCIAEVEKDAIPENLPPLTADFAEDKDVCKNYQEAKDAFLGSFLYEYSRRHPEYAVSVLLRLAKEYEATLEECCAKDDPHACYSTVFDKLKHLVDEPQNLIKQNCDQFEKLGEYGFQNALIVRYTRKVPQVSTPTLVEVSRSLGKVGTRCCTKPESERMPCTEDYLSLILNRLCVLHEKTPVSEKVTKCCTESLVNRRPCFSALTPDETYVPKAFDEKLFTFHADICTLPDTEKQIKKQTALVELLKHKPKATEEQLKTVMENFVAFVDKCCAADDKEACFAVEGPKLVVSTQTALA
Description: as §1

Histone H4 aa2-24 [3] = target: T3, Histone H4 aa2-24 (UniProt P62805 2-24); assay: polyreactivity ELISA, coated antigen
T3 construct: range 2-24
Description: as §1

Streptavidin [4] = target: T1, Streptavidin; assay: polyreactivity ELISA, coated antigen 1 µg/ml, TCB 1 µg/ml
Description: as §1

Hemocyanin = assay: as above
Description: as §1

Bovine Serum Albumin [5] = target: T2, Bovine Serum Albumin; assay: as above
Description: as §1

Insulin = assay: as above
Description: as §1

Apolipoprotein A-1 = assay: as above
Chain of Apolipoprotein A-1 (P02647 25-267): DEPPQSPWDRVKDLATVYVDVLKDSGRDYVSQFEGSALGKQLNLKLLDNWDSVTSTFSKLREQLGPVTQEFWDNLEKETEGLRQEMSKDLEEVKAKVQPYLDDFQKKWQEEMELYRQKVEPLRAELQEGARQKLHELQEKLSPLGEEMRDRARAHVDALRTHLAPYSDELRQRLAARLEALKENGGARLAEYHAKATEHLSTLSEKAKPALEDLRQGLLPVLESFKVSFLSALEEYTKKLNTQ
Description: as §1

HSP90 = assay: as above
Description: as §1

Gelatine (2%) = assay: as above
Description: as §1

[6] = target: human CD3ε (coated antigen of the polyreactivity ELISA) (human, UniProt P07766 23-126, limits assumed); assay: as above
Chain of human CD3ε (coated antigen of the polyreactivity ELISA) (P07766 23-126 limits assumed): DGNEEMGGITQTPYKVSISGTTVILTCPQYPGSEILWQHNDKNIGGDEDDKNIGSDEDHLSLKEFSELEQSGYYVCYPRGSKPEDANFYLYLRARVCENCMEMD
Description: as §1

Histone H4 aa2-24 [7] = target: T3, Histone H4 aa2-24; assay: as above
Description: as §1

[8] = target: T4, Biotinylated human CD3ε stalk-Fc (knob)-Avi / CD3δ stalk-Fc (hole) (human, biotinylated); assay: SPR (Biacore T200), biotinylated CD3ε/δ-Fc on SA chip, TCB as analyte, 25 °C, 1:1 fit
T4 construct: also called human CD3ε/δ
T4 sequence (chain, as listed by the source mutant limits assumed, chain 1 of 2): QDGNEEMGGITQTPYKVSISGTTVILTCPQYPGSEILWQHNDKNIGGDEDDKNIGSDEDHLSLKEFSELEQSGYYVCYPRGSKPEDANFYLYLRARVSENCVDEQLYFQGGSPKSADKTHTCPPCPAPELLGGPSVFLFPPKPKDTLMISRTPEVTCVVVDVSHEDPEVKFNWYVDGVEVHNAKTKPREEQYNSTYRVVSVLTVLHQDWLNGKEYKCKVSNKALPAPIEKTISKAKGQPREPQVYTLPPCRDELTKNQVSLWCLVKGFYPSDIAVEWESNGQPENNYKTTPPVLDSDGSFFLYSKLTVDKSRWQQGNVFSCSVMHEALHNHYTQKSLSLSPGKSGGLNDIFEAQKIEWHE
T4 sequence (chain, as listed by the source mutant limits assumed, chain 2 of 2): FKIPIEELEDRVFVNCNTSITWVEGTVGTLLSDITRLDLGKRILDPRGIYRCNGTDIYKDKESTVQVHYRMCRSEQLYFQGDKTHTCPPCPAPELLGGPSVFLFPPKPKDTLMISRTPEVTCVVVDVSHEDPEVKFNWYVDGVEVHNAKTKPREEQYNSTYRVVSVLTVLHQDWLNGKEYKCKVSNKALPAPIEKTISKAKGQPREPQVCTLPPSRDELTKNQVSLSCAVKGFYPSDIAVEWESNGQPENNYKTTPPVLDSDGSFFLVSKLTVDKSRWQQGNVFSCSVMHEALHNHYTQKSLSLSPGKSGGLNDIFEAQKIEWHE
Description: (§2) CD3 binding was investigated using surface plasmon resonance (SPR) on a Biacore T200 instrument (Cytiva). All experiments were performed at 25° C. using HEPES buffered saline (20 mM HEPES, 140 mM NaCl, 0.05% PS-20) pH 7.4. The experimental setup is schematically depicted in FIG. 3.
(§3) Biotinylated human and cynomolgus CD3ε stalk-Fc (knob)-Avi/[…] stalk-Fc (hole) (CD3E/8, see SEQ ID NOs 49 and 50 (human) and SEQ ID NOs 51 and 52 (cynomolgus)) were coupled to a Series S Sensor Chip SA (Cytiva, #29104992) according to the manufacturer's instructions. A concentration series ranging from 0.37 to 300 nM (1:3) of the TCB antibody molecules were injected with 90 s association time, followed by a buffer wash of 300 s for monitoring the dissociation phase. Bulk refractive index differences were corrected by subtracting the response obtained from a mock surface. Blank injections were subtracted (double referencing). Kinetic constants were derived using the Biacore T200 Evaluation Software (Cytiva), to fit rate equations for 1:1 Langmuir binding by numerical integration. The half-life (t_{1/2}) of the interaction was calculated using the formula t_{1/2}=ln2/koff.

[9] = target: T5, Biotinylated cynomolgus CD3ε stalk-Fc (knob)-Avi / CD3δ stalk-Fc (hole) (cynomolgus, biotinylated); assay: as above
T5 construct: Heterodimer of CD3 epsilon and CD3 delta ectodomains fused to Fc knob/hole; also called cynomolgus CD3ε/δ; cyno CD3
T5 sequence (chain, as listed by the source mutant limits assumed, chain 1 of 2): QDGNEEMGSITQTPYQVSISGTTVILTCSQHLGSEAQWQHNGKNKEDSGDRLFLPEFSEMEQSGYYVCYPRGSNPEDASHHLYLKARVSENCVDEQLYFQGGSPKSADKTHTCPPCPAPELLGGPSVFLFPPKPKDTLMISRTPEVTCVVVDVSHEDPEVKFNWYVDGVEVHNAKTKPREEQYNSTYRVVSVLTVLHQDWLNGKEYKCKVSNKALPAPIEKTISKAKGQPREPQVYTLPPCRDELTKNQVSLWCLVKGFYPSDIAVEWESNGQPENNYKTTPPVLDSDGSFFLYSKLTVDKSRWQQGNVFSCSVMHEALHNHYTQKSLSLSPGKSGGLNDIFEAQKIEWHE
T5 sequence (chain, as listed by the source mutant limits assumed, chain 2 of 2): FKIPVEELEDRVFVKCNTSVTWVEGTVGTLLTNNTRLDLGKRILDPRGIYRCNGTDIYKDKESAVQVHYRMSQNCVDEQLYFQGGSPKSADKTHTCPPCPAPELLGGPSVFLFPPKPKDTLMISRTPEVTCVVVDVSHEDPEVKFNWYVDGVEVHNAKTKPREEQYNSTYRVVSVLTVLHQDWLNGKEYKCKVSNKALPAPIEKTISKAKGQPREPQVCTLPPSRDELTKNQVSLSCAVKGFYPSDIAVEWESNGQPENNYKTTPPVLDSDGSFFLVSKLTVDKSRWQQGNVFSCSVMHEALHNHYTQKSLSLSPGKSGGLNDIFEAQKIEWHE
Description: as §2, §3

[10] = target: T6, Human CD3 on Jurkat NFAT reporter cells (human, UniProt P07766 23-207); assay: flow cytometry on CD3-expressing Jurkat NFAT reporter cells, PE-conjugated anti-human IgG Fc secondary antibody, median fluorescence intensity
T6 construct: CD3 complex on the cell surface; also called CD3 on Jurkat cells; CD3 antigen (expressed on Jurkat-NFAT reporter cells)
T6 sequence (P07766 23-207 limits assumed): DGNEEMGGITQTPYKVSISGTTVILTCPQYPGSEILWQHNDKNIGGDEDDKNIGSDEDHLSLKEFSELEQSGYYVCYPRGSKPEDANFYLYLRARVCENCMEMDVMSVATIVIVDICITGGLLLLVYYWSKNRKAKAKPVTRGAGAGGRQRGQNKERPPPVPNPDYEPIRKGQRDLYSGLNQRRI
Description: The antibody staining was performed in a 96-well round bottom plate. Therefore 200′000 cells were seeded per well.

T1 sequence (P22629 37-163 limits assumed): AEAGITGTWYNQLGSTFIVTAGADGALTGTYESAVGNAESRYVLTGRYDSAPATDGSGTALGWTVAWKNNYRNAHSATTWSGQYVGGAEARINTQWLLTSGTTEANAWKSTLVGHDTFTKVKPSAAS

B1: HER2-TCB containing the parental CD3 binder P1AH4929 / CD3orig (bispecific antibody, human IgG1, kappa, L234A L235A)
heavy 1: not shown
heavy 2: not shown
light 1: EVQLLESGGGLVQPGGSLRLSCAASGFTFSSYAMNWVRQAPGKGLEWVSRIRSKYNNYATYYADSVKGRFTISRDDSKNTLYLQMNSLRAEDTAVYYCVRASNFPASYVSYFAYWGQGTLVTVSSASVAAPSVFIFPPSDEQLKSGTASVVCLLNNFYPREAKVQWKVDNALQSGNSQESVTEQDSKDSTYSLSSTLTLSKADYEKHKVYACEVTHQGLSSPVTKSFNRGEC
light 2: not shown
notes: 2+1 IgG CrossFab, inverted: VH/VL exchange in the CD3 Fab, charge modifications in the two HER2 Fabs, knob-into-hole and P329G LALA in the Fc; also called PIAH4929
binding result (Streptavidin [1]): no binding (tested: 1 µg/ml) | binding result (Bovine Serum Albumin [2]): no binding (tested: 1 µg/ml) | binding result (Histone H4 aa2-24 [3]): no binding (tested: 1 µg/ml) | Absorbance (OD) (Streptavidin [4]): 0 OD | Absorbance (OD) (Hemocyanin): 0.02 OD | Absorbance (OD) (Bovine Serum Albumin [5]): 0 OD | Absorbance (OD) (Insulin): 0.01 OD | Absorbance (OD) (Apolipoprotein A-1): 0 OD | Absorbance (OD) (HSP90): 0.02 OD | Absorbance (OD) (Gelatine (2%)): -0.01 OD | Absorbance (OD) [6]: 2.87 OD | Absorbance (OD) (Histone H4 aa2-24 [7]): 0.05 OD | Kd [8]: 0.2 nM | t1/2 [8]: 529 s | Kd [9]: 0.2 nM | t1/2 [9]: 519 s | EC50 (read off the curve) [10]: ~6 nM

B2: HER2-TCB containing the optimized CD3 binder P1AI7913 (bispecific antibody, human IgG1, kappa, L234A L235A)
heavy 1: not shown
heavy 2: not shown
light 1: B1 light 1 with S49G, I51V, S53T, Y58R, A59E, T60P
light 2: not shown
notes: 2+1 IgG CrossFab, inverted: VH/VL exchange in the CD3 Fab, charge modifications in the two HER2 Fabs, knob-into-hole and P329G LALA in the Fc; also called P1AI7913 (in TCB format)
binding result (Streptavidin [1]): no binding (tested: 1 µg/ml) | binding result (Bovine Serum Albumin [2]): no binding (tested: 1 µg/ml) | binding result (Histone H4 aa2-24 [3]): no binding (tested: 1 µg/ml) | Absorbance (OD) (Streptavidin [4]): 0.01 OD | Absorbance (OD) (Hemocyanin): 0.07 OD | Absorbance (OD) (Bovine Serum Albumin [5]): 0.01 OD | Absorbance (OD) (Insulin): 0.04 OD | Absorbance (OD) (Apolipoprotein A-1): 0.01 OD | Absorbance (OD) (HSP90): 0.03 OD | Absorbance (OD) (Gelatine (2%)): 0.01 OD | Absorbance (OD) [6]: 2.83 OD | Absorbance (OD) (Histone H4 aa2-24 [7]): 0.06 OD | Kd [8]: 1.5 nM | t1/2 [8]: 81 s | Kd [9]: 1.3 nM | t1/2 [9]: 81 s

B3: HER2-TCB containing the optimized CD3 binder P1AI7915 (bispecific antibody, human IgG1, kappa, L234A L235A)
heavy 1: not shown
heavy 2: not shown
light 1: B1 light 1 with S49G, I51Q, S53T, K54Q, Y58R, A59E, T60D
light 2: not shown
notes: 2+1 IgG CrossFab, inverted; also called P1AI7915 (in TCB format)
binding result (Streptavidin [1]): no binding (tested: 1 µg/ml) | binding result (Bovine Serum Albumin [2]): no binding (tested: 1 µg/ml) | binding result (Histone H4 aa2-24 [3]): no binding (tested: 1 µg/ml) | Absorbance (OD) (Streptavidin [4]): 0 OD | Absorbance (OD) (Hemocyanin): 0.08 OD | Absorbance (OD) (Bovine Serum Albumin [5]): 0.01 OD | Absorbance (OD) (Insulin): 0.04 OD | Absorbance (OD) (Apolipoprotein A-1): 0.01 OD | Absorbance (OD) (HSP90): 0.07 OD | Absorbance (OD) (Gelatine (2%)): 0.01 OD | Absorbance (OD) [6]: 2.99 OD | Absorbance (OD) (Histone H4 aa2-24 [7]): 0.07 OD | Kd [8]: 11.5 nM | t1/2 [8]: 30 s | Kd [9]: 9.7 nM | t1/2 [9]: 31 s

B4: HER2-TCB containing the optimized CD3 binder P1AI7912 (bispecific antibody, human IgG1, kappa, L234A L235A)
heavy 1: not shown
heavy 2: not shown
light 1: B1 light 1 with S49G, I51V, S53T, K54T, Y58R, A59E, T60P
light 2: not shown
notes: 2+1 IgG CrossFab, inverted: VH/VL exchange in the CD3 Fab, charge modifications in the two HER2 Fabs, knob-into-hole and P329G LALA in the Fc; also called P1AI7912 (in TCB format)
binding result (Streptavidin [1]): no binding (tested: 1 µg/ml) | binding result (Bovine Serum Albumin [2]): no binding (tested: 1 µg/ml) | binding result (Histone H4 aa2-24 [3]): no binding (tested: 1 µg/ml) | Absorbance (OD) (Streptavidin [4]): 0 OD | Absorbance (OD) (Hemocyanin): 0.02 OD | Absorbance (OD) (Bovine Serum Albumin [5]): 0 OD | Absorbance (OD) (Insulin): 0.02 OD | Absorbance (OD) (Apolipoprotein A-1): 0.01 OD | Absorbance (OD) (HSP90): 0.07 OD | Absorbance (OD) (Gelatine (2%)): -0.01 OD | Absorbance (OD) [6]: 2.2 OD | Absorbance (OD) (Histone H4 aa2-24 [7]): 0 OD | Kd [8]: 12.6 nM | t1/2 [8]: 11 s | Kd [9]: 11.3 nM | t1/2 [9]: 11 s
